This note sets out measurements from paper PMC4176350, “A high security double lock and key mechanism in HUH relaxases controls oriT-processing for plasmid conjugation”.

In this data set the target is T1, TrwCR (TrwC relaxase domain, TrwC-N293) (Escherichia coli? (plasmid R388), UniProt Q47673 1-293).
T1 sequence: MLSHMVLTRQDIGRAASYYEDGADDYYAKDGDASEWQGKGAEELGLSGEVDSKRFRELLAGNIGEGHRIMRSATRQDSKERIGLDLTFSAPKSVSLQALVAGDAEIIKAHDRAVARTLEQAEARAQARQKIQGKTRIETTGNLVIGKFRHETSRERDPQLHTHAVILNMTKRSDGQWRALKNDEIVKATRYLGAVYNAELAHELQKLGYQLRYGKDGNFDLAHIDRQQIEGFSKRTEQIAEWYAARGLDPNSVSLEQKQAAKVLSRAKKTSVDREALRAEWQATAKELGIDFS
Put plainly: X-ray crystallography; 1:1.5 protein:DNA; Crystallization: TrwCR 6 mg/ml in 200 mM NaCl, 20 mM Tris-HCl pH 7.5, 1 mM DTT, 0.5 mM EDTA; reservoir 2 M ammonium phosphate, 0.1 M Tris-HCl pH 8.5, 22 C. As to conditions: protein: recombinant; hairpin with 3' single-stranded tail.

Take GCACCGAAAGGTGCGTATTCTTGGT (structured_DNA) [RIV(23+2), nic mutant IV]: the binding result is “binds”.
